One sequence from PMC5131957 can be followed below.

In the data set the target is p53CD (core domain) (human) (UniProt P04637). In words: ELISA. The settings on record: EMSA: 5 mM Tris-HCl pH 8, 1 mM MgCl2, 0.01% Triton X-100, 50 mM KCl, on ice or 25 C, 30 min, pBSK/SmaI competitor 5-50 ng; ELISA: 1x PBS, 2 mM MgCl2 …. For orientation: In an ELISA, binding on a coated surface is turned into a signal by an enzyme label.
p53CD (core domain) (human), sequence (P04637 94-312): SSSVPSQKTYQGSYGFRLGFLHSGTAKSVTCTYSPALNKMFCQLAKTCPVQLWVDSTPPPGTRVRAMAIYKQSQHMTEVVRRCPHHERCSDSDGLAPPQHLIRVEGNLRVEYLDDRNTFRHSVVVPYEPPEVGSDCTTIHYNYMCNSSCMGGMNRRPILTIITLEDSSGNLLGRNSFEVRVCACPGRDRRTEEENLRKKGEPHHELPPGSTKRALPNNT

Turning to “TTTTTTTTTTTTTTTTTTTTTTTTTTTTTTTTTTTTTTTTTTTTTTTTTT / AAAAAAAAAAAAAAAAAAAAAAAAAAAAAAAAAAAAAAAAAAAAAAAAAA / TTTTTTTTTTTTTTTTTTTTTTTTTTTTTTTTTTTTTTTTTTTTTTTTTT [T.A.T triplex, biotinylated]”, the Kd (as a rule, the constant that tells how readily two partners part at equilibrium) came to 16.8 nM.
